# T1: human TM4SF1 (transmembrane-4 L six family member-1) (human, UniProt P30408 1-202)
# T1 construct: also called hTM4SF1
# T1 sequence: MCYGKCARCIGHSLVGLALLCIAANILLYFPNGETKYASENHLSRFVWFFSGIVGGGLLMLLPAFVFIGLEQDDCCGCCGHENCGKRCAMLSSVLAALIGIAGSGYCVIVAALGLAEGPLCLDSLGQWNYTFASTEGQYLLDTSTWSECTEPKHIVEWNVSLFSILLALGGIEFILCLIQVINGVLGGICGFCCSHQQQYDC
# Target: T1, human TM4SF1 (transmembrane-4 L six …)
# Assay: flow cytometry (MFI) on HUVEC
row,Binder,EC50 [nM]
1,"humanized AGX-A01 (antibody, human IgG1, kappa, V domains shown, also called h AGX-A01 H1L10; h AGX-A01) VH: EVQLVESGGGLVKPGGSLRLSCAASGFTFSSFAMSWVRQAPGKGLEWVSTISSGSIYIYYTDGVKGRFTISRDNAKNSLYLQMNSLRAEDTAVYYCARRGIYYGYDGYAMDYWGQGTLVTVSS VL: AIVLTQSPGTLSLSPGERATLSCRSSQSLVHSNGNTYLHWYMQKPGQAPRVLIYKVSNRFSGIPDRFSGSGSGTDFTLTISRLEPDDFAIYYCSQSTHIPLAFGQGTKLEIKR",3.03
2,"humanized mutated (hm) AGX-A07 H2L5 V1 (antibody, human IgG1, kappa, V domains shown, Full heavy and light chains) VH: EVQLVQSGAEVKKPGASVKVSCKASGYTFTNYGVKWVRQAPGQGLEWMGWINTYTGNPIYAADFKGRVTMTTDTSTSTAYMELRSLRSDDTAVYYCVRFQYGDYRYFDVWGQGTLVTVSS VL: EIVLTQSPATLSLSPGERATLSCRANSGISFINWYQQKPGQAPRLLIYGTANLASGIPARFSGSGSGRDFTLTISSLEPEDFAVYYCQQWSSNPLTFGGGTKVEIKR",1.58

# Now from value to binder:
row,EC50 [nM],Binder
1,46.1,"humanized mutated (hm) AGX-A07 H2L5 V4 (antibody, human IgG1, kappa, V domains shown, Full heavy and light chains; also called hm AGX-A07 V4) VH: EVQLVQSGAEVKKPGASVKVSCKASGYTFTNYGVKWVRQAPGQGLEWMGWINTYTGNPIYAADFKGRVTMTTDTSTSTAYMELRSLRSDDTAVYYCVRFQYGDYRYFDVWGQGTLVTVSS VL: EIVLTQSPATLSLSPGERATLSCRAQSGISFINWYQQKPGQAPRLLIYGTANLASGIPARFSGSGSGRDFTLTISSLEPEDFAVYYCQQYSSNPLTFGGGTKVEIKR"
2,1.53,"humanized AGX-A07 H2L5 (antibody, human IgG1, kappa, V domains shown, Full heavy and light chains; also called h AGX-A07 H2L5; hAGX-A07 H2L5) VH: QVQLVQSGAEVKKPGASVKVSCKASGYTFTNYGVKWVRQAPGQDLEWMGWINTYTGNPIYAADFKGRVTMTTDTSTSTAFMELRSLRSDDTAVYYCVRFQYGDYRYFDVWGQGTLVTVSS VL: EIILTQSPATLSLSPGERATLSCRANSGISFINWYQQKPGQAPRLLIYGTANLASGIPARFGGSGSGRDFTLTISSLEPEDFAVYYCQQWSSNPLTFGGGTKVEIKR"
3,1.64,"humanized mutated (hm) AGX-A07 H2L5 V2 (antibody, human IgG1, kappa, V domains shown, Full heavy and light chains; also called AGX-A07 H2v1L5v2) VH: EVQLVQSGAEVKKPGASVKVSCKASGYTFTNYGVKWVRQAPGQGLEWMGWINTYTGNPIYAADFKGRVTMTTDTSTSTAYMELRSLRSDDTAVYYCVRFQYGDYRYFDVWGQGTLVTVSS VL: EIVLTQSPATLSLSPGERATLSCRAQSGISFINWYQQKPGQAPRLLIYGTANLASGIPARFSGSGSGRDFTLTISSLEPEDFAVYYCQQWSSNPLTFGGGTKVEIKR"
4,4.19,"humanized mutated (hm) AGX-A07 H2L5 V3 (antibody, human IgG1, kappa, V domains shown, Full heavy and light chains) VH: EVQLVQSGAEVKKPGASVKVSCKASGYTFTNYGVKWVRQAPGQGLEWMGWINTYTGNPIYAADFKGRVTMTTDTSTSTAYMELRSLRSDDTAVYYCVRFQYGDYRYFDVWGQGTLVTVSS VL: EIVLTQSPATLSLSPGERATLSCRANSGISFINWYQQKPGQAPRLLIYGTANLASGIPARFSGSGSGRDFTLTISSLEPEDFAVYYCQQYSSNPLTFGGGTKVEIKR"

# Target: T1, human TM4SF1 (transmembrane-4 L six …)
# Assay: flow cytometry on MDA-MB-468 and HLMEC cells
row,Binder,concentration that saturates cell surface TM4SF1 binding [ng/mL]
1,"anti-TM4SF1 antibody AGX-A01 (antibody, V domains shown, also called 8G4; AGX-01) VH: EVILVESGGGLVKPGGSLKLSCAASGFTFSSFAMSWVRQTPEKRLEWVATISSGSIYIYYTDGVKGRFTISRDNAKNTVHLQMSSLRSEDTAMYYCARRGIYYGYDGYAMDYWGQGTSVTVS VL: AVVMTQTPLSLPVSLGDQASISCRSSQSLVHSNGNTYLHWYMQKPGQSPKVLIYKVSNRFSGVPDRFSGSGSGTDFTLKISRVEADDLGIYFCSQSTHIPLAFGAGTKLELK",10000
